Here are results for nine molecules from US20170151339A1 (priority 2014, published 2017).

Each structure is given as a SMILES string. Where a SMILES comes first, the peptide text is derived from it. Bridges are numbered along the chain shown (N, C = ends). [ ]: non-standard residue; d: D form. The star is where a group is joined. X1 = COc1cc2cc(c1Cl)N(C)C(=O)[C@H](OC(=O)[C@H](C)N(C)C(=O)CCS*)[C@]1(C)O[C@H]1[C@H](C)[C@@H]1C[C@@](O)(NC(=O)O1)[C@H](OC)/C=C/C=C(\C)C2; Thr(ol) = C[C@@H](O)[C@H](N)CO

Data set [1] is described as follows: Rat pharmacokinetics of nanoparticle formulations of 1 and 2. The class given is in vivo. The conditions noted are these: rats, 1 mg/kg IV bolus, plasma, dose normalized. The procedure:
Nanoparticles are typically formulated for in vivo delivery in 10% sucrose and free drug formulations varied, but are typically dosed in 10% Solutol®/10% sucrose, or physiological saline. In this example conjugate 1 without nanoparticle formulation was dosed as a solution in 20% propyleneglycol/80% aqueous sucrose (10%).
For rat pharmacokinetic studies using nanoparticles as described herein, a 0.1 mg/mL solution was dosed at 10 mL/kg such that a 1 mg/kg IV bolus dose was introduced by tail vein injection into rats. Following compound administration, blood was collected at 0.083 hours, 0.25 hours, 0.5 hours, 1 hour, 2 hours, 4 hours, 8 hours, and 24 hours post dose into lithium heparin coated vacuum tubes. Tubes were inverted for 5 minutes and then placed on wet ice until centrifuged for 5 minutes at 4° C. at 6000 rpm. Plasma was harvested, frozen at −80° C. and shipped to for bioanalysis on dry ice.
50 uL of rat plasma was precipitated with 300 uL of DMF and the resulting supernatant was measured for compound content by LC-MS/MS electrospray ionization in the positive mode.
Representative dose normalized rat pharmacokinetic curves for conjugate 1 and nanoparticle formulations of conjugate 1 are shown in FIG. 3.
Representative dose normalized rat pharmacokinetic curves for conjugate 2 and nanoparticle formulations of conjugate 2 are shown in FIG. 4.

Data set [2] has as its system NCI-H524 (ATCC) human lung cancer cells. It is filed as cell-based. To be noted: for IC50: treated 2 hours, further incubated 70 hours. The procedure: Conjugates were assessed in an in vitro assay evaluating inhibition of cell proliferation. NCI-H524 (ATCC) human lung cancer cells were plated in 96 well, V-bottomed plates (Costar) at a concentration of 5,000 cells/well and 24 hours later were treated with compound for 2 hours and further incubated 70 hours. Compound starting dose was 20 μM and three fold serial dilutions were done for a total of ten points. After 2 hours of treatment, cells were spun down, the drug containing media was removed, and fresh complete medium was added and used to resuspend the cells, which were spun again. After removal of the wash media, the cells were resuspended in complete medium, then transferred into white walled, flat bottomed 96 well plates. […] Proliferation was measured using CellTiter Glo reagent using the standard protocol (Promega) and a Glomax multi+detection system (Promega). Percent proliferation inhibition was calculated using the following formula: % inhibition=(control−treatment)/control*100. Control is defined as vehicle alone. IC50 curves were generated using the nonlinear regression analysis (four parameter) with GraphPad Prism 6.

A short description of data set [3]: Solubility in aqueous media containing Tween 80. It is filed as physicochemical. The conditions noted are these: aqueous Tween 80. The source says: In certain formulations, conjugate 1′ was used without any changes to its native lipophilicity (free conjugate). […] The tendency of conjugate 1 to retain in the nanoparticle despite a high aqueous solubility in Tween/water could be due to the high lipophilicity of cabazitaxel and its compatibility/miscibility with the polymeric matrix. The presence of leucine, proline, tryptophan and tyrosine in the LHRH peptide may also assist in the interaction of the conjugate with the polymeric matrix.
In certain formulations, conjugate 1 was used without any changes to its native lipophilicity (free conjugate). […] Without committing to any particular theory, the tendency of conjugate 1 to retain in the nanoparticle despite a high aqueous solubility in Tween®/water could be due to the high lipophilicity of cabazitaxel and its compatibility/miscibility with the polymeric matrix. The presence of two phenylalanine amino acids in the octreotide peptide may also assist in the interaction of the conjugate with the polymeric matrix.
In some formulations, conjugate 2 was used without any changes to its native lipophilicity (free conjugate). […] The tendency of 2 to be retained in the nanoparticle was reduced compared to 1.

Data set [4] in a line: Rat pharmacokinetics of nanoparticle formulations of 1′. It is filed as in vivo. To be noted: rats, 1 mg/kg IV bolus, plasma, dose normalized, Table 3. The procedure:
Nanoparticles described herein were typically formulated in 10% sucrose and free drug formulations were generally formulated typically dosed in 10% Solutol®/l 0% sucrose, or physiological saline.
For pharmacokinetic studies, a 0.1 mg/mL solution was dosed at 10 mL/kg such that a 1 mg/kg IV bolus dose was introduced by tail vein injection into rats. Following compound administration, blood was collected at 0.083 hours, 0.25 hours, 0.5 hours, 1 hour, 2 hours, 4 hours, 8 hours, and 24 hours post-dose into lithium heparin coated vacuum tubes. Tubes were inverted for 5 minutes and then placed on wet ice until centrifuged for 5 minutes at 4° C. at 6000 rpm. Plasma was harvested, frozen at −80° C. and shipped to for bioanalysis on dry ice.
50 uL aliquots of rat plasma were precipitated with 300 uL of DMF and the resulting supernatant was measured for compound content by LC-MS/MS electrospray ionization in the positive mode.

The nature of data set [5]: Pharmacokinetics of cabazitaxel-RGD nanoparticles in rats. It is filed as in vivo. The conditions noted are these: rat, 1 mg/kg IV bolus, plasma. How it is done: Nanoparticles are typically formulated in 10% sucrose and free drug formulations varied, but are typically dosed in 10% SOLUTOL®/10% sucrose, or physiological saline.
(§1) For PK studies, a 0.1 mg/mL solution was dosed at 10 mL/kg such that a 1 mg/kg IV bolus dose was introduced by tail vein injection into rats Following compound administration, blood was collected at 0.083 h, 0.25 h, 0.5 h, 1 h, 2 h, 4 h, 8 h, and 24 h post dose into lithium heparin coated vacuum tubes. Tubes were inverted for 5 minutes and then placed on wet ice until centrifuged for 5 minutes at 4° C. at 6000 rpm. Plasma was harvested, frozen at −80° C. and shipped to for bioanalysis on dry ice.
50 uL of rat plasma were precipitated with 300 uL of DMF and the resulting supernatant was measured for compound content by LC-MS/MS electrospray ionization in the positive mode.

Data set [6] can be described thus: Tolerability in rat PK study of cabazitaxel-RGD nanoparticles. The conditions noted are these: rats, 1 mg/kg dose IV. The class given is in vivo. The procedure: as §1

Usually AUC(0-inf) stands for total exposure, with the tail of the curve extrapolated. A higher AUC(0-inf) goes with high exposure. For the molecule `COc1cccc2c1C(=O)c1c(O)c3c(c(O)c1C2=O)C[C@@](O)(C(=O)COC(=O)CCCC(=O)N[C@H](Cc1ccccc1)C(=O)N[C@H]1CSSC[C@@H](C(=O)N[C@H](CO)[C@@H](C)O)NC(=O)[C@H]([C@@H](C)O)NC(=O)[C@H](CCCCN)NC(=O)[C@@H](Cc2c[nH]c4ccccc24)NC(=O)[C@H](Cc2ccccc2)NC1=O)C[C@@H]3O[C@H]1C[C@H](N)[C@H](O)[C@H](C)O1` [Example 2], in data set [1] (conjugate 2 and its nanoparticles, Table 12), the AUC(0-inf) was found to be 14.3 µM·h.
For orientation: IC50 means the concentration that inhibits the measured activity by half. Molecule `CCCCN(CCSSCCC(=O)N[C@H](Cc1ccccc1)C(=O)N[C@H]1CSSC[C@@H](C(=O)N[C@H](CO)[C@@H](C)O)NC(=O)[C@H]([C@@H](C)O)NC(=O)[C@H](CCCCN)NC(=O)[C@@H](Cc2c[nH]c3ccccc23)NC(=O)[C@H](Cc2ccccc2)NC1=O)C(=O)O[C@@H](C(=O)O[C@H]1C[C@@]2(O)[C@@H](OC(=O)c3ccccc3)[C@@H]3[C@]4(OC(C)=O)CO[C@@H]4C[C@H](OC)[C@@]3(C)C(=O)[C@H](OC)C(=C1C)C2(C)C)[C@@H](NC(=O)OC(C)(C)C)c1ccccc1` [Conjugate 3] had an IC50 in data set [2] of over 20000 nM.
As to `CC[C@H](C)[C@@H]([C@@H](CC(=O)N1CCC[C@H]1[C@H](OC)[C@@H](C)C(=O)N[C@H](C)[C@@H](O)c1ccccc1)OC)N(C)C(=O)[C@@H](NC(=O)[C@H](C(C)C)N(C)C(=O)OCc1ccc(NC(=O)[C@H](CCCNC(N)=O)NC(=O)[C@@H](NC(=O)CCCCCN2C(=O)CC(SCCC(=O)N[C@H](Cc3ccccc3)C(=O)N[C@H]3CSSC[C@@H](C(=O)N[C@H](CO)[C@@H](C)O)NC(=O)[C@H]([C@@H](C)O)NC(=O)[C@H](CCCCN)NC(=O)[C@@H](Cc4c[nH]c5ccccc45)NC(=O)[C@H](Cc4ccccc4)NC3=O)C2=O)C(C)C)cc1)C(C)C` (stereo partly drawn) [Conjugate 5], the IC50 in data set [2] is 433 nM.
`COc1cc2cc(c1Cl)N(C)C(=O)C[C@H](OC(=O)[C@H](C)N(C)C(=O)CCSSCCC(=O)NCCOCCOCCOCCOCCOCCOCCOCCOCCC(=O)N[C@H](Cc1ccccc1)C(=O)N[C@H]1CSSC[C@@H](C(=O)N[C@H](CO)[C@@H](C)O)NC(=O)[C@H]([C@@H](C)O)NC(=O)[C@H](CCCCN)NC(=O)[C@@H](Cc3c[nH]c4ccccc34)NC(=O)[C@H](Cc3ccccc3)NC1=O)[C@]1(C)O[C@H]1[C@H](C)[C@@H]1C[C@@](O)(NC(=O)O1)[C@H](OC)/C=C/C=C(\C)C2` [Conjugate 6] gave an IC50 in data set [2] of 234 nM.
The same measure, in the same setting: in the case of `COc1cc2cc(c1Cl)N(C)C(=O)[C@H](OC(=O)[C@H](C)N(C)C(=O)CCSSC[C@H](N)C(=O)N[C@@H](CCCCN)C(=O)N[C@@H](CCCCN)C(=O)N[C@@H](CCCCN)C(=O)N[C@@H](CCCCN)C(=O)N[C@H](Cc1ccccc1)C(=O)N[C@H]1CSSC[C@@H](C(=O)N[C@H](CO)[C@@H](C)O)NC(=O)[C@H]([C@@H](C)O)NC(=O)[C@H](CCCCN)NC(=O)[C@@H](Cc3c[nH]c4ccccc34)NC(=O)[C@H](Cc3ccccc3)NC1=O)[C@]1(C)O[C@H]1[C@H](C)[C@@H]1C[C@@](O)(NC(=O)O1)[C@H](OC)/C=C/C=C(\C)C2` [Conjugate 7] (H-C(X1)KKKK[dF]CF[dW]KTC[Thr(ol)]; disulfide 7-12) it was 955 nM.
As a reminder, the solubility is how much of the substance goes into solution per volume. A higher solubility goes with much dissolved substance. `CO[C@H]1C(=O)[C@]2(C)[C@@H](OC)C[C@H]3OC[C@@]3(OC(C)=O)[C@H]2[C@H](OC(=O)c2ccccc2)[C@]2(O)C[C@H](OC(=O)[C@H](OC(=O)OCCSSCCC(=O)N[C@H](Cc3ccccc3)C(=O)N[C@H]3CSSC[C@@H](C(=O)N[C@H](CO)[C@@H](C)O)NC(=O)[C@H]([C@@H](C)O)NC(=O)[C@H](CCCCN)NC(=O)[C@@H](Cc4c[nH]c5ccccc45)NC(=O)[C@H](Cc4ccccc4)NC3=O)[C@@H](NC(=O)OC(C)(C)C)c3ccccc3)C(C)=C1C2(C)C` [Conjugate 1] came in with an IC50 in data set [2] of 110 nM. Moreover, in data set [3], the solubility was over 7000 µg/mL and the “solubility in aqueous media containing surfactant” value is “high solubility”. The molecule also registered an AUC(0-inf) in data set [4] of 2.19 µM·h. Further, the AUC(0-inf) in data set [1] (conjugate 1 and its nanoparticles, Table 11) is 18.3 µM·h.
`COc1cc2cc(c1Cl)N(C)C(=O)C[C@H](OC(=O)[C@H](C)N(C)C(=O)CCSSCCC(=O)N[C@H](Cc1ccccc1)C(=O)N[C@H]1CSSC[C@@H](C(=O)N[C@H](CO)[C@@H](C)O)NC(=O)[C@H]([C@@H](C)O)NC(=O)[C@H](CCCCN)NC(=O)[C@@H](Cc3c[nH]c4ccccc34)NC(=O)[C@H](Cc3ccccc3)NC1=O)[C@]1(C)O[C@H]1[C@H](C)[C@@H]1C[C@@](O)(NC(=O)O1)[C@H](OC)/C=C/C=C(\C)C2` [Conjugate 4] came in with an IC50 in data set [2] of 229 nM.
Take `C[C@@H](O)[C@@H]1NC(=O)[C@H](CCCCN)NC(=O)[C@@H](Cc2c[nH]c3ccccc23)NC(=O)[C@H](Cc2ccccc2)NC(=O)[C@@H](NC(=O)[C@H](N)Cc2ccccc2)CSSC[C@@H](C(=O)N[C@H](CO)[C@@H](C)O)NC1=O` [Octreotide, reference compound]: in data set [2] (octreotide alone), the “effect on cell proliferation” value is recorded as “no significant effect”.
For orientation: AUC means the area under the concentration-time curve, a measure of exposure. Higher therefore signals more exposure. In data set [5], `CCCCN(CCSSC[C@@H]1NC(=O)[C@@H](Cc2ccccc2)NC(=O)[C@H](CC(=O)O)NC(=O)CNC(=O)[C@H](CCCNC(=N)N)NC1=O)C(=O)O[C@@H](C(=O)OC1C[C@@]2(O)[C@@H](OC(=O)c3ccccc3)[C@@H]3[C@]4(OC(C)=O)CO[C@@H]4C[C@H](OC)[C@@]3(C)C(=O)[C@H](OC)C(=C1C)C2(C)C)[C@@H](NC(=O)OC(C)(C)C)c1ccccc1` (stereo partly drawn) [BT-568] yielded an area under the curve (AUC) of 5.3 µM·h. Further, in data set [6], the “tolerability observations post dose” value is “lethargy and labored breathing were observed immediately post dose in all three rats”. For the same molecule, in data set [6] (three rats), the mortality result is on record as “one of the three animals died”.
